Measured values: PMC8067709, “Crystal Structure of the Epo1-Bem3 Complex for Bud Growth” (International Journal of Molecular Sciences, 2021)

T1: Epo1^CC2-CC4 (746-943) with 6xHis tag, isolated protein
T1 chain: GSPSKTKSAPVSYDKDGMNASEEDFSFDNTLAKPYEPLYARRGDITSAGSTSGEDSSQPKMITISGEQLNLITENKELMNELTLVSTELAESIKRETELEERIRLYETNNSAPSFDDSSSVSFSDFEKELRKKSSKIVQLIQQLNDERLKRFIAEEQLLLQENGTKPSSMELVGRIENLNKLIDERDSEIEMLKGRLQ

T2: Bem3^CC1 (1-99) with 6xHis tag, isolated protein (Saccharomyces cerevisiae, UniProt P32873 1-99)
T2 chain: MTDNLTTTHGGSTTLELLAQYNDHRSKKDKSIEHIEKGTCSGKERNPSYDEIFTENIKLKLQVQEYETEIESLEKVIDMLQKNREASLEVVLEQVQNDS

B1: Bem3^CC1 (1-99) with 6xHis tag, isolated protein, P32873 R84A (protein)
chain: MTDNLTTTHGGSTTLELLAQYNDHRSKKDKSIEHIEKGTCSGKERNPSYDEIFTENIKLKLQVQEYETEIESLEKVIDMLQKNAEASLEVVLEQVQNDS
B2: Epo1^CC2-CC4 (746-943) with 6xHis tag, isolated protein (domain or fragment)
chain: GSPSKTKSAPVSYDKDGMNASEEDFSFDNTLAKPYEPLYARRGDITSAGSTSGEDSSQPKMITISGEQLNLITENKELMNELTLVSTELAESIKRETELEERIRLYETNNSAPSFDDSSSVSFSDFEKELRKKSSKIVQLIQQLNDERLKRFIAEEQLLLQENGTKPSSMELVGRIENLNKLIDERDSEIEMLKGRLQ
B3: Epo1CC2-CC4-Q888A (protein)
chain: GSPSKTKSAPVSYDKDGMNASEEDFSFDNTLAKPYEPLYARRGDITSAGSTSGEDSSQPKMITISGEQLNLITENKELMNELTLVSTELAESIKRETELEERIRLYETNNSAPSFDDSSSVSFSDFEKELRKKSSKIVQLIQALNDERLKRFIAEEQLLLQENGTKPSSMELVGRIENLNKLIDERDSEIEMLKGRLQ
modifications: Entity 1 of 6LP3 is Epo1 (YMR124W) 746-943, so entity position = residue number - 745 (Q888 = 143, K881 = 136, R876 = 131). Q888A is taken from the figure label; the text says Q884A and the legend Q88A. Epo1 CC2-CC4 alone is a homodimer in solution; one chain is given.
B4: Epo1-CC-K881A (domain or fragment)
chain: GSPSKTKSAPVSYDKDGMNASEEDFSFDNTLAKPYEPLYARRGDITSAGSTSGEDSSQPKMITISGEQLNLITENKELMNELTLVSTELAESIKRETELEERIRLYETNNSAPSFDDSSSVSFSDFEKELRKKSSAIVQLIQQLNDERLKRFIAEEQLLLQENGTKPSSMELVGRIENLNKLIDERDSEIEMLKGRLQ
B5: Bem3^CC1 (1-99) with 6xHis tag, isolated protein (domain or fragment, Saccharomyces cerevisiae, UniProt P32873 1-99, looked up)
chain: MTDNLTTTHGGSTTLELLAQYNDHRSKKDKSIEHIEKGTCSGKERNPSYDEIFTENIKLKLQVQEYETEIESLEKVIDMLQKNREASLEVVLEQVQNDS
notes: Bem3, Saccharomyces cerevisiae, residues 1-99 (CC1 domain); Dimer in solution by MALS; theoretical molecular mass printed as 11.39 kDa; also called N-His-unlabeled Bem3^CC1; wild-type (wt) Bem3^CC1; source: pET-22b construct, purified (Hitrap Q ion-exchange); not shown: 6xHis, N-terminal, kept

Legend:
[1] = molecular target: Scs2-Msp (1-128), N-His (Saccharomyces cerevisiae) (UniProt P40075); assay: MST; Monolith NT.115; RED-tris-NTA labeled N-His Scs2-Msp (100 nM) with a serial dilution of Epo1, Bem3 or EB complex from 2 mM; 20 mM Tris-HCl pH 8.0, 150 mM NaCl, 4 mM MgCl2, 0.05% Tween 20
Chain of Scs2-Msp (1-128), N-His (Saccharomyces cerevisiae) (P40075 1-128): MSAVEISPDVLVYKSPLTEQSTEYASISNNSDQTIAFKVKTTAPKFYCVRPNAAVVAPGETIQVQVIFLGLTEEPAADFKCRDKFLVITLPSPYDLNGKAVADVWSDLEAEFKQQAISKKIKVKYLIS

[2] = molecular target: T1, Epo1^CC2-CC4 (746-943) with 6xHis tag, …; assay: SPR; conditions: chain shown with the change;; parent: 72.65
[3] = molecular target: T2, Bem3^CC1 (1-99) with 6xHis tag, …; assay: SPR
[4] = molecular target: Epo1^CC2-CC4 (746-943) with 6xHis tag, isolated protein (Saccharomyces cerevisiae); assay: SEC-MALS; Superdex 200 10/300 with DAWN HELEOS II; 100 uL of 2-4 mg/mL protein; 20 mM Tris pH 8.0, 150 mM NaCl, 4 mM MgCl2
[5] = molecular target: the molecule itself; assay: as above

Row | Molecule | Kd [1] | Kd [3] | further results
1 | Epo1^CC2-CC4-Bem3^CC1 complex (from UniProt P32873 1-99) | 120 µM | – | –
2 | B1 | – | – | Kd [2]: 137 µM
3 | B2 | 170 µM | 72.7 µM | stoichiometry N [4]: 2
4 | B3 | – | 115 µM | –
5 | B4 | – | 375 µM | –
6 | B5 | – | – | stoichiometry N [5]: 2
